Test results from the DeepSol protein solubility set.

assay: soluble on expression in E. coli; label from the status in PepcDB or PDB records

Row | Sequence | soluble on expression in E. coli
1 | NLMYYGTFIIDNPVKKGAEKFIAQCREISVPVFVATGDTTKAAENIAKVLCPANAGKIVTLRADQIDEKGIEFLNEENYPSDSTVIFSGINEAILNRFQKLMGREGAKRPVVIFAEMSTEGKGVLARYLKDHHYFVVANGDGTNDVMMMKNSNVVIAHHSDDGTFAPGVDGLTN | not soluble
2 | NPAIAMTEKEIKEYGFPFDARFCSLPLVHADDLKQIFGRYASEVCCRYLRPFDSDYYTLATKNFYQTDIAALDPTAVVGGEDTIRGLMRVATEVCFVIESGKPGAFHPRIHFEKSFRYAHLSLEEKKAWQRLSDDYFHKRNDDLWKQEALSRLIPLLSSTDMLVCVEDLGMIPPAVPVVMEQLQLLSLILERISKEPGQDFADMSRQPYCSVCTTSTHDMAPLRLWWQENELPRRHYYSMILGEKGTAPETCTPETARRILRQHLLSTSMLAIFPLADWLSLSGELQGIVAPEDEQINKPEISDHYWRYRMPISIESLSEDYRELNESIASLIRTSGRG | not soluble
3 | NTAPSLTVPECAICLQTCVHPVSLPCKHVFCYLCVKGASWLGKRCALCRQEIPEDFLD | soluble
4 | PAEIHIITAARGRGKSTLAGKLAEQFAKTEQVILTAHRSSSIQKILQTASINIPFFAPDKLLNLIETKQISADHLLFIDEAACIPLPILQQLGNYFKKVILTTTTQNYEGTGRGFKLKLVKQLHRTTKEWQLFQPLRWSNHDRLEQFTNELLLLN | not soluble
5 | PAIDYKTAFHLAPIGLVLSRDRVIEDCNDELAAIFRCARADLIGRSFEVLYPSSDEFERIGERISPVMIAHGSYADDRIMKRAGGELFWCHVTGRALDRTAPLAAGVWTFEDLSATRRVA | soluble
6 | PHFIVECSDNIREEADLPGLFAKVNPTLAATGIFPLAGIRSRVHWVDTWQMADGQHDYAFVHMTLKIGAGRSLESRQQAGEMLFELIKTHFAALMESRLLALSFEIEELHPTLNFKQNNVHALFK | soluble
7 | PHPADPRLLIGQHVGAGPMVLASPWPRIVAPADFDTRFQGEARDLVLAHERVHLARGDAQINALVVALQCLCWFNPLVHLGAHRLRLDQEMACDEAVLARRPEARRLYAETLLDTLLAPR | not soluble
8 | PLGSDHWGKGDMSDEDDENEFFDAPEIITMPENLGHKRTGSHHHHHH | soluble
9 | PLWVAPDGHIFLEAFSPVYKYAQDFLVAIAEPVCRPTHVHEYKLTAYSLYAAVSVGLQTSDITEYLRKLSKTGVPDGIMQFIKLCTVSYGKVKLVLKHNRYFVESCHPDVIQHLLQDPVIRECRLRNSEGEATELITETF | not soluble
10 | PNFSGNWKIIRSENFEELLKVLGVNVMLRKIAVAAASKPAVEIKQEGDTFYIKVSTTVRTTEINFKVGEEFEEQTVDGRPCKSLVKWESENKMVCEQKLLKGEGPKTSWTLELTNDGELIDTMTADDVVCTKVFVRE | soluble
11 | PRGSHMIILAFDIFGTVLDTSTVIQEFRNKQLEYTWLLTIMGKYVEFEEITKITLRYILKVRGEESKFDEELNKWKNLKAYEDTKYLKEISEIAEVYALSNGSINEVKQHLERNGLLRYFKGIFSAESVKEYKPSPKVYKYFLDSIGAKEAFLVSSNAFDVIGAKNAGMRSIFVNRKNTIVDPIGGKPDVIVNDFKELYEWILRYK | soluble
12 | PRTRECDYCGTDIEPGTGTMFVHKDGATTHFCSSKCENNADLGREARNLEWTDTARGEAGEAEDEA | soluble
13 | PSFSFGGITPVSLQRSSMELISVQAVKHPKLLLYLSERGLQPSDASPFLSEVYYKVSRKCFFALGFPNDAGGWELRNPYFKGCFAPKAITTIKGTDSHKLLLFEGFMDFLSWRKLHPEGQAESIILNSLTLLPKLMPTLHPYPMIESLLDNDEAGDRATKQLIDAGLPVKDMRACYAPYKDINEYLTLAEQRKKILTPHKRGLRR | not soluble
14 | PSGFPQNLHVTGLTTSTTELAWDPPVLAERNGRIISYTVVFRDINSQQELQNITTDTRFTLTGLKPDTTYDIKVRAWTSKGSGPLSPSIQSRTMPV | soluble
15 | PSIKSAIQGKPVNPLNVSPTRLPILTADEKEFDVKIIVTGDRNQLADLEYVDEDFSTGLTMYTEVEEDIHLSASNLELYVGLVNWICSEYGFPSLDDGAFQRLLLAGMRLTEDQH | not soluble
16 | PSPQSLDGKNLNFDQQLVIFESENCEFCAQFDRDILAHWQADIPMVATKNTNPPADWTLDKPLFAAPTIVLFREGKEVVRYTGYTGEKENFWQWL | not soluble

Row | Sequence | soluble on expression in E. coli
17 | PTAQQLQLTTLDGKPFDPAGLKGKWLLGVADQAACPESCARKLFITRNSHASQGKNVDRVQRVWFITDDGEVPQKVLDAYRGTLMLRARPEQLGRYLLGQDAAAPAALLGPMWVIDPLGNLMLQFPPDVDGVKVRKDISRLLYNSR | not soluble
18 | PTSSTTATLVMGDALAVALLKARGFTAEDFALSHPGGALGRKLLLRVNDIMHTGDEIPHVKKTASLRDALLEVTRKNLGMTVICDDNMMIEGIFTDGDLRRVFDMGVDVRRLSIADVMTPGGIRVRPGILAVEALNLMQSRHITSVMVADGDHLLGVLHMHDLLRA | not soluble
19 | PTTRGYGETRGIVKENGLHTVCEEAGCPNIGECWDKKHATFMIMGDTCTRACAFCNVKTGMPGALDANEPAYVAEATRKLGLQHLVITSVDRDDLADGGAAHFAATIRAVREACPTTTIEILTPDFLRKDGALEVVVAAKPDVFNHNLETVPSRYLSVRPGARYFHSIRLLQRVKELDPSIFTKSGIMVGLGEERHEVLQVMDDLRSAEVDFLTIGQYLQPTRKHHAVMRYVTPDEFAGYQTTAYAKGFLMVSASPMTRSSHHAGDDFAKLKAA | not soluble
20 | QDIAADIAPERVSNDPLVNLGEAVVEEEEKVGALEDLFMETKQDGVNTDDPIAHLKFSMQREDDYLIRDVEKPEPAPAKTIENTRQVVDDSFSIHSEFDIPNLIPEDWLGGVATSKESVEPAAEQAKQAAFIPEDFAHTKPVSPQASVVQPDVNQPQQPQYEAPLSHATSNVTQRAEPVSQKWEEVTQAFVPSAQPTQPETKAKEAQQGFVSNESLAIESVAHSSDIGKAFYEGLGISNPDLISNEALLFKQMGACLRLCIDNLQKDLHEVESLKGEQGLSEADSNLAELMLTLNSQNLLSPNELVEQMLDELNDHQIIFNKALNELLIEQSETNDPVMFANDVASKSMFTTKSKLWGEYLEFYANNRRQMNETSLKGLIKKNYTKAIKGSHA | not soluble
21 | QDSKVFDPFLAAITPEIMPVKGKLAEKALPLIDQQLQGQPGSTVLLVSDGVNPATIKQYQAYFAGKPYQLLILAAGNTDIVSNNPMDLDSLQKLASQTNGRLVEVTVDNSDIEQLNRYVERNMQLNGESSMPWKD | not soluble
22 | QGAVRKATAAEIAALPRQKVELVDPPFVHAHSQVAEGGPKVVEFTMVIEEKKIVIDDAGTEVHAMAFNGTVPGPLMVVHQDDYLELTLINPETNTLMHNIDFHAATGALGGGGLTEINPGEKTILRFKATKPGVFVYHCAPPGMVPWHVVSGENGAIMVLPREGLHDGKGKALTYDKIYYVGEQDFYVPRDENGKYKKYEAPGDAYEDTVKVMRTLTPTHVVFNGAVGALTGDKAMTAAVGEKVLIVHSQANRDTRPHLIGGHGDYVWATGKFNTPPDVDQETWFIPGGAAGAAFYTFQQPGIYAYVNHNLIEAFELGAAAHFKVTGEWNDDLMTSVLAPSGT | soluble
23 | QGVDQSPKPLIIGPEEDYDPGYFNNESDIIFQDLEKLKSRPAHLGVFLRYIFSQADPSPLLFYLCAEVYQQASPKDSRSLGKDIWNIFLEKNAPLRVKIPEMLQAEIDSRLRNSEDARGVLCEAQEAAMPEIQEQIHDYRTKRTLGLGSLYGENDLLDLDGDPLRERQVAEKQLAALGDILSAYAADRSAPMDFALNTYMSHAGIRLREA | soluble
24 | QIDYMTNSDMGYDYRNKLIIDVFGLDPQIVSTMRTEIAKIPGITGIGLTRGTPLNGGNNNSSEYRGRPLSMQIFSIDSVALSLFDLKMKPNGRKADKPDRTLYLSRSAYNDFDVANLPDGVIHWGKAGEFYYCGDAPEVHFGGFKEPHPSYLFIPYPQSSAWSWSVLVGYSEGADPEQLIQSIQAVYSRITGQPYTEILRSEDIIASHSEEERSLS | not soluble
25 | QIVPLFFQDVTNQPIEGMKPRSALEVEGRDVFIANGCVGCHSQMIRPLRAETERYGHYSVAGESVWDHPFLWGSKRTGPDLARIGGRYSDEWHRVHLNNPRDLVPASIMPAYPFLAGKHIDSTQTAKKLQVLRTLGTPYSDADITGAAAAVQGKTEMDALVAYLQGLGTLIKSKR | not soluble
26 | QIYSARYSGVDVYEFIHSTGSIMKRKKDDWVNATHILKAANFAKAKRTRILEKEVLKETHEKVQGGFGKYQGTWVPLNIAKQLAEKFSVYDQLKPLFDF | soluble
27 | QLRDFSSIIQTCSGNIQRISQATAQIKNLMSQLGTKQDSSKLQENLQQLQHSTNQLAKETNELLKELGSLPLPLSTSEQRQQRLQKERLMNDFSAALNNFQAVQRRVSEKEKESIAR | soluble
28 | QNKNSVELDGGAIFKNDKLIDKMDKSETEAYNFMIGKVSSGSMEVLNPETNRDFISLWILNSKTTTKGKFYGGKFHVKKIVNVKVAFLESQSPITYNKYMQKQIEQNAEKNIINNCNKIFNKYKEKNEDIFNVRDVYENIYKKGSPDIIKNTVIDIEPHVQIERSGKASTF | not soluble
29 | QPDPPCGGRLNSKDAGYITSPGYPQDYPSHQNCEWIVYAPEPNQKIVLNFNPHFEIEKHDCKYDFIEIRDGDSESADLLGKHCGNIAPPTIISSGSMLYIKFTSDYARQGAGFSLRYEIFKTGSEDCSKNFTSPNGTIESPGFPEKYPHNLDCTFTILAKPKMEIILQFLIFDLEHDPLQVGEGDCKYDWLDIWDGIPHVGPLIGKYCGTKTPSELRSSTGILSLTFHTDMAVAKDGFSARYYLVHQEPLENFQCNVPLGMESGRIANEQISASSTYSDGRWTPQQSRLHGDDNGWTPNLDSNKEYLQVDLRFLTMLTAIATQGAISRETQNGYYVKSYKLEVSTNGEDWMVYRHGKNHKVFQANNDATEVVLNKLHAPLLTRFVRIRPQTWHSGIALRLELFGCRVTDAPCSNMLGMLSGLIADSQISASSTQEYLWSPSAARLVSSRSGWFPRIPQAQPGEEWLQVDLGTPKTVKGVIIQGARGGDSITAVEARAFVRKFKVSYSLNGKDWEYIQDPRTQQPKLFEGNMHYDTPDIRRFDPIPAQYVRVYPERWSPAGIGMRLEVLGCDWTHHHHHH | soluble
30 | QQFFFENDALGQSSTDFATNFLNLWDNNREQLLNLYSPQSQFSVSVDSTIPPSTVTDSDQTPAFGYYMSSSRNISKVSSEKSIQQRLSIGQESINSIFKTLPKTKHHLQEQPNEYSMETISYPQINGFVITLHGFFEETGKPELESNKKTGKNNYQKNRRYNHGYNSTSNNKLSKKSFDRTWVIVPMNNSVIIASDLLTVRAYSTGAWKTASIAIAQAAGS | soluble
31 | QQFHWVNDGYADFDGFLAALSSRKRKAIRKERAQAQGFGGQIRELTGGDLRPEHWDAFWRFYQDTGARKWGSPYLTRAFFDIAHQTMADDMVLVLAERDGIPVAGALNFIGREALFGRYWGCVEHHPCLHFELCYYRAIDWAIAHGLARVEAGAQGEHKLARG | not soluble
32 | QRGIINQRRERLVAADLMGAATVTASTVKYIVEKANRIASGAPATVAEGTKKPYVKYADFDVVTESLSKVAALAKFTDEMIEDYDFVASWINNNLVYDLSVVEEKQLINGDGRGSNIKGLLNREGIQTHKSAKQADWFNDLFKAKNKVSQATNLEADGIMINPVNYEALRLTKDGNGQYIAGGPFQGQYGNGNILIDPPLWGIKTVVSNAVPAGTAIVGAFRQGATVLRKGGVRVDSANTNADDFENNLVTLRAEERLGLMVPLPAAFVKVTLEETTEEL | not soluble
